Data set [1] can be described thus: melting temperature (DSF); higher = more thermostable. As to the method: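 Candidate PET hydrolases were expressed in E. coli C41(DE3) in 2 mL autoinduction cultures in 24-deep-well plates, Ni-bead purified and released by SUMO protease cleavage on an OT-2 robot. Yield per well was measured by BCA; values below 25 ug (0.1 mg/mL) are below the detection threshold. Melting temperature was measured by differential scanning fluorimetry with Sypro Orange, ramping from 25 C at 0.3 C/step.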

A short description of data set [2]: purified protein yield per well (BCA); higher = higher soluble expression. In a few lines: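 The measured quantity is purified protein yield per well, determined with the Pierce Rapid Gold BCA kit. Anything below 25 ug (0.1 mg/mL) lies under the detection threshold. Enzymes were expressed in E. coli C41(DE3) in 2 mL autoinduction cultures with 100 µg/mL kanamycin at 37 °C for 2 h, then 18 °C for 40 h, and purified on an OT-2 robot using Ni-charged magnetic beads and SUMO protease release.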

Data set [3] is described as follows: PET hydrolysis, aromatic products released after 48 h (umol product/mg enzyme); higher = more PET depolymerization activity. As to the method:
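HTP-purified, SUMO-cleaved, tagless PET hydrolase candidates (5 ug, 1.43 mg/g PET) were incubated 48 h without shaking with 3.5 mg amorphous PET film (aFilm) or crystalline PET powder (cryPow) in 0.5 mL buffer: NaCitrate pH 4.5/5.5, NaPhosphate pH 6.5/7.5, glycine pH 8.5. Incubation was at 40 or 60 C. Aromatic products (TPA, MHET, BHET) in the supernatant were quantified by UV absorbance at 260/280 nm relative to buffer blanks and expressed per mg enzyme. LCC-ICCG was the positive control on every plate.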

[4] abbreviates: substrate: cryPow, 40 °C, pH 4.5.
Where [5] appears, read: substrate: cryPow, 40 °C, pH 5.5.
[6] abbreviates: substrate: cryPow, 40 °C, pH 6.5.
[7] abbreviates: substrate: cryPow, 40 °C, pH 7.5.

Results on seven sequences are retold here after the supplement of paper PMC12455559.

± gives the standard deviation of the averaged measurements. Some results are limits rather than exact numbers.

As for “ADNPYERGPAPTTASIEAVRGPYAVSEYRVSSLAATGFGGGTIHYPTTTADGTFGAIAVSPGYTGTESTIAWLGPRLASQGFVVFTIETLTLFDQPDSRGRQLLAALDHLTRVSPLRGRVDSSRLGVMGHSMGGGGSLEAAKSRPSLQAAVPLTPWNLDKTWPELRTPTLVVGADGDSIAPVRSHAEPFYESLPSSLDRAYLELNGASHFAPNSPDTTIAKYSIAWLKRFIDNDTRYEQFLCPLPRPSLTIEEYRGNCPHTS [TEP138]”, the melting temperature in data set [1] was determined as 36.1 C. The “purified protein yield per well” value in data set [2] was determined as 28 µg.

Turning to “ADSPYQRGPDPTPASVAATRGPFATTQATVPAGNGFNGGYVYYPTDTSQGTWGAVAIVPGYSALFANEEAWMGPWLASFGFVVIGIETNSRTDGADARATQLLAALDYLTRTSPIRDRVDANRLGVMGHSAGGAGTLLAALRRPTLKTAVGLAPGTPGNNLNMSTTQVPTMLLSGQNDGTVTPTYVQGIYNTLPAGVEHAWAELAGNDHLSFTRSNPTEMRLLIPWLKTFLDNDTRYTQFLCPLANSTGVSRYNATCPLVPPDGPTSPPTTTPPTSAPPTTSAPTTPPPSGATCTATYRTVNSWSGGFQGEVTVTAGAAALNGWTVRWESNNGQSISQVWNGTLSTSGSTATVRNVSYNGSLAAGATTTFGFLSSGTPAATSPTCASP [ESM051]”, the melting temperature in data set [1] was determined as 54.4 C. Also, the “purified protein yield per well” value in data set [2] stood at 27.3 µg.

For “FSATGPSAPCSNCTRGPAPTVTALKASTGPFTTAKFSVSGFLKGYGDSTVYYPTNTTGKMGAIAVIPGYLSYESSIDWWGPRLASHGFVVMTMNTKTIYDQPDSRASQLSEALDYLIAQSKSSSSPLYNKIDSTRLGAIGWSMGGGGSLKLATQRSINAIIPQAPWYLGSSAFSGIKTPTLILACSADTVAPVAQHASPFYNQIPNSTPKAFLEIYGGSHFCANSGYPNQDMLGMYGIAWMKRFIDFDSRYSQFLCGPNHESDYAISDYRENCPY [ESM055]”, the melting temperature in data set [1] was determined as 55.3 C. In addition, the “purified protein yield per well” value in data set [2] turned out to be 28.9 µg.

Regarding “MHPTPDRAKVLPVNVSRGPAEPPAARSARPGGRSAPDGLRPGRRRPVPSSEQGATDVQSHPPTPANRRTRTVATLALALTLVGGAGAIAPTAHAAAGHERGPNPTSAALEASRGPFSVSSTTVSSLSASGFGGGTIYYPNDTGQGTFGGVIVAPGFTASRSTMAWLAERLASHGFVVFNIDTITRSDQPDSRGRQLLAAADHLAEESSPAVRSRLDAGRIGVMGHSMGGGGTLAAAESRPSLQAAVPLTPWHTDKSWGSVQVPTMIIGAENDSVAPVSSHAEPFYNSLSSAQEKAYLELNGASHFAPNSSNSTLAKYSIAWMKRFVDDDLRYDQFLCPAPGRSTRIEEYRSSCPH [TEP081]”, the “purified protein yield per well” value in data set [2] amounted to 35.7 µg. Besides, the PET hydrolysis in data set [3] (setting [4]), in data set [3] (setting [5]), in data set [3] (setting [6]) and in data set [3] (setting [7]) was < 3 each time.

For the sequence “MPQQAQAGPGNPYERGPAPTEASVTAERGPFAVSQKAVPESADGRFNKGTVYYPTDTSQGTFGAVAISPGFVSPEAAVGWLGPRLASQGFVVMTLETNTPLDFPDQRADQLLGALDWLTTSSDVRERIDASRLAVAGHSMGGGASLRASEKRPTLQAAVPLTPWHTDKTWEKDPVPTLVVGAENDTVAPVAEHAEPFYSSLSAAPEKAYLELEGADHLAPVAPNVTVAKYAISWLKRYVDDDTRYEQFLCPPPRPSSTISEYRDTCPGS [TEP193]”, in data set [2], the “purified protein yield per well” value worked out at 50.4 µg. For the same sequence, the PET hydrolysis in data set [3] (setting [4]), in data set [3] (setting [5]), in data set [3] (setting [6]) and in data set [3] (setting [7]) was < 3 each time.

With “MSNPYQRGPNPTRSALTADGPFSVATYTVSRLSVSGFGGGVIYYPTGTSLTFGGIAMSPGYTADASSLAWLGRRLASHGFVVLVINTNSRFDGPDSRASQLSAALNYLRTSSPSAVRARLDANRLAVAGHSMGGGGTLRIAEQNPSLKAAVPLTPWHTDKTFNTSVPVLIVGAEADTVAPVSQHAIPFYQNLPSTTPKVYVELCNASHIAPNSNNAAISVYTISWMKLWVDNDTRYRQFLCNVNDPALCDFRTNNRHCQLEHHHHHH [LCC-ICCG]”, in data set [1], the melting temperature stood at 93.6 C. The PET hydrolysis in data set [3] (substrate: aFilm, 40 °C, pH 4.5) turned out to be 8.5 ± 1.9; in data set [3] (substrate: aFilm, 40 °C, pH 5.5), 17.4 ± 9.2; in data set [3] (substrate: aFilm, 40 °C, pH 6.5) it was 38.1 ± 12; in data set [3] (substrate: aFilm, 40 °C, pH 7.5) it was 58.9 ± 20; in data set [3] (substrate: aFilm, 40 °C, pH 8.5), 73 ± 30; in data set [3] (substrate: aFilm, 60 °C, pH 4.5), 60.8 ± 8. The PET hydrolysis was found to be 448 in data set [3] (substrate: aFilm, 60 °C, pH 5.5); 820 ± 23 in data set [3] (substrate: aFilm, 60 °C, pH 6.5); 965 ± 100 in data set [3] (substrate: aFilm, 60 °C, pH 7.5); 584 in data set [3] (substrate: aFilm, 60 °C, pH 8.5); 20.1 ± 5.3 in data set [3] (setting [4]); 51.5 ± 15 in data set [3] (setting [5]). Further, the PET hydrolysis turned out to be 94.5 ± 18 in data set [3] (setting [6]); 130 ± 20 in data set [3] (setting [7]); 113 ± 14 in data set [3] (substrate: cryPow, 40 °C, pH 8.5); 56.2 ± 7.2 in data set [3] (substrate: cryPow, 60 °C, pH 4.5); 121 ± 18 in data set [3] (substrate: cryPow, 60 °C, pH 5.5); 208 ± 33 in data set [3] (substrate: cryPow, 60 °C, pH 6.5). Also, the PET hydrolysis in data set [3] (substrate: cryPow, 60 °C, pH 7.5) came out at 236 ± 3.

On to “QAPTRESLGAQGPYQVAYYSNFPAVQEFTAGTIYFPANKAQTFGAVAISPGFAERQENMSWWGRHLASHGFAVLTLDTNELRDDPAIRAEALMAALRVLSGESEREGSPLRGKIDTNRMAIMGHSMGGGGTLLAANTHSSELKAAIPFTPWQPDGDFSDVTVPTLIIAGEIDRVAPVNDHAWPHYQSLSASNPRLYLEIRGGNHFIANTAT [TEP038]”, for which the “purified protein yield per well” value in data set [2] came out at 52.1 µg. Moreover, the PET hydrolysis in data set [3] (setting [4]), in data set [3] (setting [5]), in data set [3] (setting [6]) and in data set [3] (setting [7]) was < 3 throughout.
